Patent US20250333531A1 (NORDIC NANOVECTOR ASA, published 2025)

T1: human CD37 (human, UniProt P11049 1-281)
T1 construct: whole, on cells; also called CD37 antigen
T1 sequence (looked up): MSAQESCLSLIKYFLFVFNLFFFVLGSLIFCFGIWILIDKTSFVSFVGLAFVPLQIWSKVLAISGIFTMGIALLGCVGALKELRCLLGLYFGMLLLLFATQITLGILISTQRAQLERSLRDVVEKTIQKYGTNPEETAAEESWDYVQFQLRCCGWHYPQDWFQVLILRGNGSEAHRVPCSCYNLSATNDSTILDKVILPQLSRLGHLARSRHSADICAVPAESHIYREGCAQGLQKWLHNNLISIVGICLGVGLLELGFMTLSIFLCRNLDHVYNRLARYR


Experiments:
human CD37 [1] = target: T1, human CD37; assay: competitive radioligand binding on Ramos cells; upper end tied by Table 18 to AH02895
human CD37 [2] = target: T1, human CD37; assay: competitive radioligand binding on Ramos cells; ratio to Ki of NNV009 (assumed 2.3)
Procedure: (§1) The Eppendorf LoBind tubes 1.5 mL were used to prepare dilutions (working concentrations) of Abs. As much as 0.2 mL of the cell suspension (800 000 cells/tube), after it has been cooled down for 30 min on ice, was aliquoted to glass 12×75 mm counting tubes. Each tube was pre-labeled with a code specifically determining each sample. The tubes with cells were maintained on ice for whole time course of the experiment except for the time when counted on the gamma counter. The tubes were agitated on a planetary shaker at 350 RPM, 4° C. (on ice) for 15 min. […] The tubes were placed on the planetary shaker (GL 064), on ice, and shaken for 4 hours at 350 RPM. After 3.5 hours past from the beginning of incubation, the samples were assayed on Wizard2 gamma counter using protocol “Lu-177 General” (all detectors except for the detector #3 were used). Upon completion the counting, the cells were washed with ice-cold 0.5 mL 0.5% BSAPBS three times. All the tubes were assayed on the Wizard2 gamma counter again using the same sequence and parameters as before the washing.

human CD37 [3] = target: T1, human CD37; assay: competitive radioligand binding on Ramos cells against 177Lu-NNV009 (2.7 nM), gamma counting
Procedure: as §1

[4] = target: FcγRIIIa-V158 on Promega Jurkat effector cells (UniProt P08637 17-254, limits assumed); assay: cell-based or functional assay
human CD37 [5] = target: T1, human CD37; assay: competitive radioligand binding on Ramos cells; lower end tied by Table 18 to AH02871HC + AH02877LC + V110D

| Binder | fold affinity relative to NNV009 (human CD37 [1]) [fold] | Ki(NNV009)/Ki(NNV020 var.) (human CD37 [2]) [fold] | EC50 (human CD37 [3]) [nM] | Ki (human CD37 [3]) [nM] | average potency of the ADCC response (Example 13) [4] [nM] | efficacy (Emax) relative to NNV024, ADCC FcγRIIIa-158V reporter assay [4] [%] | potency (EC50) relative to rituximab, ADCC FcγRIIIa-158V reporter assay [4] [fold] | fold affinity relative to NNV009 (human CD37 [5]) [fold] |
| --- | --- | --- | --- | --- | --- | --- | --- | --- |
| AH02895 (antibody, human IgG1, kappa, V domains shown, Humanized IgG1 kappa; also called NNV020 #6) VH: QIQLVQSGAEVVKPGASVKVSCKASGYSFTDYNMYWVKQAPGQRLEWMGYIDPYNGDTTYNQKFKGRATITRDTSASTAYIELSSLRSEDTAVYYCARSPYGHYAMDYWGQGTLVTVSS VL: DIQMTQSPSSLSASVGDRVTITCKASQDVSTAVDWYQQKPGKAPKLLINWASTRHTGVPSRFSGSGSGTDYTLTISSMQPEDFATYYCRQHYSTPFTFGQGTKLEIKR | 4 to 7 | 6.97 | 0.718 | 0.33 | – | – | – | – |
| NNV023 (antibody, human IgG1, Humanized IgG1 kappa, fucosylated; also called AH02871HC + AH02877LC + V110D; AH02871HC_2877LC-110D) heavy: not shown light: DIQMTQSPSSLSASVGDRVTITCKASQDVSTAVDWYQQKPGKSPKLLINWASTRHTGVPSRFSGSGSGTDYTLTISSLQPEDFATYYCRQHYSTPFTFGQGTKLEIKRTDAAPSVFIFPPSDEQLKSGTASVVCLLNNFYPREAKVQWKVDNALQSGNSQESVTEQDSKDSTYSLSSTLTLSKADYEKHKVYACEVTHQGLSSPVTKSFNRGEC | – | 4.03 | 1.24 | 0.571 | 3 | 75 | ~7 | 4 to 7 |
